Test results reported in the array DNA melting data of Ke et al..

Experiment: melting temperature; melt of duplexes
Conditions: sodium 0.0675 M; strand 1 µM
Substance “CGACGTGCTATATGTGCTG+CAGCACATCCAGCACGTCG (((((((((..((((((((+))))))))..)))))))))” has a Tm of 50.2 °C. With “CGACGTGCTACATGTGCTG+CAGCACATCGCGCACGTCG ((((((((...((((((((+))))))))...))))))))” the Tm was 46.9 °C. Work on “CGACGTGCCTGATGTGCTG+CAGCACATTGAGCACGTCG ((((((((...((((((((+))))))))...))))))))” yielded a Tm of 51 °C. In the case of “CGACGTGCTGCATGTGCTG+CAGCACATTACGCACGTCG ((((((((...((((((((+))))))))...))))))))”, the Tm is reported as 48.2 °C. In the case of “CGACGTGCGTAATGTGCTG+CAGCACATATCGCACGTCG (((((((((..((((((((+))))))))..)))))))))”, the Tm is reported as 55.6 °C. “CGACGTGCACTATGTGCTG+CAGCACATCCGGCACGTCG ((((((((...((((((((+))))))))...))))))))” gave a Tm of 43.2 °C. Work on “CGACGTGCAAGATGTGCTG+CAGCACATCGAGCACGTCG ((((((((..(((((((((+)))))))))..))))))))” yielded a Tm of 57.9 °C. For “CGACGTGCTGGATGTGCTG+CAGCACATAGTGCACGTCG ((((((((...((((((((+))))))))...))))))))”, the Tm was 45 °C. Substance “CGACGTGCAAGATGTGCTG+CAGCACATCTTGCACGTCG (((((((((((((((((((+)))))))))))))))))))” has a Tm of 63.8 °C. For “CGACGTGCAGCATGTGCTG+CAGCACATGTAGCACGTCG ((((((((..(((((((((+)))))))))..))))))))”, the Tm was 54.4 °C. “CGACGTGCCGTATGTGCTG+CAGCACATTGCGCACGTCG ((((((((...((((((((+))))))))...))))))))” gave a Tm of 49.3 °C. Substance “CGACGTGCCAGATGTGCTG+CAGCACATTCAGCACGTCG ((((((((...((((((((+))))))))...))))))))” has a Tm of 50.7 °C. “CGACGTGCTCGATGTGCTG+CAGCACATCGTGCACGTCG ((((((((.((((((((((+)))))))))).))))))))” showed a Tm of 59 °C. Work on “CGACGTGCGGAATGTGCTG+CAGCACATCATGCACGTCG ((((((((...((((((((+))))))))...))))))))” yielded a Tm of 51.9 °C. “CGACGTGCTTGATGTGCTG+CAGCACATCGAGCACGTCG (((((((((.(((((((((+))))))))).)))))))))” showed a Tm of 60.6 °C. “CGACGTGCTTAATGTGCTG+CAGCACATAGTGCACGTCG ((((((((...((((((((+))))))))...))))))))” gave a Tm of 44 °C. For “CGACGTGCACTATGTGCTG+CAGCACATACAGCACGTCG ((((((((..(((((((((+)))))))))..))))))))”, the Tm was 45.4 °C. “CGACGTGCGAAATGTGCTG+CAGCACATGACGCACGTCG (((((((((..((((((((+))))))))..)))))))))” showed a Tm of 55 °C. “CGACGTGCCTCATGTGCTG+CAGCACATTTTGCACGTCG ((((((((...((((((((+))))))))...))))))))” showed a Tm of 46.6 °C. “CGACGTGCTTGATGTGCTG+CAGCACATCAAGCACGTCG (((((((((((((((((((+)))))))))))))))))))” gave a Tm of 64.9 °C. Substance “CGACGTGCACAATGTGCTG+CAGCACATATGGCACGTCG ((((((((...((((((((+))))))))...))))))))” has a Tm of 47.7 °C. Substance “CGACGTGCCATATGTGCTG+CAGCACATCGTGCACGTCG ((((((((...((((((((+))))))))...))))))))” has a Tm of 44.2 °C. “CGACGTGCTCCATGTGCTG+CAGCACATCATGCACGTCG ((((((((...((((((((+))))))))...))))))))” gave a Tm of 47.7 °C. Substance “CGACGTGCAAGATGTGCTG+CAGCACATTTGGCACGTCG ((((((((.(.((((((((+)))))))).).))))))))” has a Tm of 52.5 °C. With “CGACGTGCAAAATGTGCTG+CAGCACATGTAGCACGTCG ((((((((.(.((((((((+)))))))).).))))))))” the Tm was 53.1 °C. Substance “CGACGTGCTGTATGTGCTG+CAGCACATCCTGCACGTCG ((((((((.(.((((((((+)))))))).).))))))))” has a Tm of 51.5 °C. In the case of “CGACGTGCGAAATGTGCTG+CAGCACATATTGCACGTCG ((((((((.(.((((((((+)))))))).).))))))))”, the Tm is reported as 51.9 °C. Substance “CGACGTGCTGTATGTGCTG+CAGCACATTTGGCACGTCG ((((((((...((((((((+))))))))...))))))))” has a Tm of 50.4 °C. For “CGACGTGCCTCATGTGCTG+CAGCACATGTAGCACGTCG ((((((((..(((((((((+)))))))))..))))))))”, the Tm was 52.9 °C. In the case of “CGACGTGCGCTATGTGCTG+CAGCACATATAGCACGTCG ((((((((..(((((((((+)))))))))..))))))))”, the Tm is reported as 53.8 °C. Work on “CGACGTGCACTATGTGCTG+CAGCACATGACGCACGTCG ((((((((...((((((((+))))))))...))))))))” yielded a Tm of 44.6 °C. Substance “CGACGTGCCGCATGTGCTG+CAGCACATCGAGCACGTCG ((((((((...((((((((+))))))))...))))))))” has a Tm of 54.5 °C. In the case of “CGACGTGCGGGATGTGCTG+CAGCACATTTGGCACGTCG ((((((((...((((((((+))))))))...))))))))”, the Tm is reported as 51.3 °C. Work on “CGACGTGCAGCATGTGCTG+CAGCACATTGGGCACGTCG ((((((((...((((((((+))))))))...))))))))” yielded a Tm of 47.2 °C. “CGACGTGCTCGATGTGCTG+CAGCACATCTCGCACGTCG ((((((((..(((((((((+)))))))))..))))))))” showed a Tm of 53.3 °C. With “CGACGTGCCCCATGTGCTG+CAGCACATTAAGCACGTCG ((((((((...((((((((+))))))))...))))))))” the Tm was 47.2 °C. Substance “CGACGTGCACGATGTGCTG+CAGCACATATAGCACGTCG ((((((((...((((((((+))))))))...))))))))” has a Tm of 45.6 °C. For “CGACGTGCGGTATGTGCTG+CAGCACATACAGCACGTCG ((((((((.((((((((((+)))))))))).))))))))”, the Tm was 59.5 °C. Work on “CGACGTGCCATATGTGCTG+CAGCACATTAAGCACGTCG ((((((((...((((((((+))))))))...))))))))” yielded a Tm of 50.1 °C. Substance “CGACGTGCTATATGTGCTG+CAGCACATGAAGCACGTCG (((((((((..((((((((+))))))))..)))))))))” has a Tm of 53.2 °C. For “CGACGTGCTATATGTGCTG+CAGCACATTGTGCACGTCG ((((((((...((((((((+))))))))...))))))))”, the Tm was 47.2 °C. Substance “CGACGTGCATAATGTGCTG+CAGCACATAAAGCACGTCG ((((((((.(.((((((((+)))))))).).))))))))” has a Tm of 50.2 °C. Substance “CGACGTGCGCTATGTGCTG+CAGCACATCCGGCACGTCG ((((((((...((((((((+))))))))...))))))))” has a Tm of 48.1 °C. “CGACGTGCCGTATGTGCTG+CAGCACATGTCGCACGTCG ((((((((...((((((((+))))))))...))))))))” gave a Tm of 49 °C. In the case of “CGACGTGCAACATGTGCTG+CAGCACATCTAGCACGTCG ((((((((.(.((((((((+)))))))).).))))))))”, the Tm is reported as 48.2 °C. In the case of “CGACGTGCTTGATGTGCTG+CAGCACATAATGCACGTCG ((((((((.(.((((((((+)))))))).).))))))))”, the Tm is reported as 52.1 °C. With “CGACGTGCAGTATGTGCTG+CAGCACATGTGGCACGTCG ((((((((...((((((((+))))))))...))))))))” the Tm was 50.4 °C. “CGACGTGCAAGATGTGCTG+CAGCACATCACGCACGTCG ((((((((..(((((((((+)))))))))..))))))))” showed a Tm of 53.8 °C. Work on “CGACGTGCCTGATGTGCTG+CAGCACATCAAGCACGTCG ((((((((.((((((((((+)))))))))).))))))))” yielded a Tm of 56.6 °C. Substance “CGACGTGCCCGATGTGCTG+CAGCACATCTTGCACGTCG ((((((((..(((((((((+)))))))))..))))))))” has a Tm of 52.5 °C. “CGACGTGCCCCATGTGCTG+CAGCACATATCGCACGTCG ((((((((...((((((((+))))))))...))))))))” showed a Tm of 45.5 °C. Substance “CGACGTGCTTTATGTGCTG+CAGCACATCATGCACGTCG ((((((((.(.((((((((+)))))))).).))))))))” has a Tm of 49.2 °C. “CGACGTGCTAGATGTGCTG+CAGCACATCGAGCACGTCG (((((((((.(((((((((+))))))))).)))))))))” gave a Tm of 59.7 °C. Work on “CGACGTGCAGTATGTGCTG+CAGCACATTACGCACGTCG ((((((((...((((((((+))))))))...))))))))” yielded a Tm of 52.1 °C. In the case of “CGACGTGCGTAATGTGCTG+CAGCACATCCCGCACGTCG (((((((((..((((((((+))))))))..)))))))))”, the Tm is reported as 53.5 °C. With “CGACGTGCTCGATGTGCTG+CAGCACATCGAGCACGTCG (((((((((((((((((((+)))))))))))))))))))” the Tm was 66.6 °C. Work on “CGACGTGCGCGATGTGCTG+CAGCACATCTAGCACGTCG ((((((((..(((((((((+)))))))))..))))))))” yielded a Tm of 55.5 °C. “CGACGTGCTCTATGTGCTG+CAGCACATTCTGCACGTCG ((((((((...((((((((+))))))))...))))))))” showed a Tm of 47.8 °C. Substance “CGACGTGCCCTATGTGCTG+CAGCACATGCTGCACGTCG ((((((((...((((((((+))))))))...))))))))” has a Tm of 45.4 °C. For “CGACGTGCCGAATGTGCTG+CAGCACATGGAGCACGTCG ((((((((...((((((((+))))))))...))))))))”, the Tm was 53.1 °C. “CGACGTGCGAAATGTGCTG+CAGCACATCCTGCACGTCG ((((((((...((((((((+))))))))...))))))))” gave a Tm of 49.5 °C. For “CGACGTGCTTCATGTGCTG+CAGCACATTAGGCACGTCG ((((((((.(.((((((((+)))))))).).))))))))”, the Tm was 50 °C. “CGACGTGCTGGATGTGCTG+CAGCACATTACGCACGTCG ((((((((...((((((((+))))))))...))))))))” showed a Tm of 51.1 °C. For “CGACGTGCCAGATGTGCTG+CAGCACATCATGCACGTCG ((((((((..(((((((((+)))))))))..))))))))”, the Tm was 53.4 °C. In the case of “CGACGTGCGCTATGTGCTG+CAGCACATGAAGCACGTCG ((((((((...((((((((+))))))))...))))))))”, the Tm is reported as 53.9 °C. Substance “CGACGTGCGCCATGTGCTG+CAGCACATGGCGCACGTCG (((((((((((((((((((+)))))))))))))))))))” has a Tm of 68.7 °C. Work on “CGACGTGCTTAATGTGCTG+CAGCACATGCTGCACGTCG ((((((((...((((((((+))))))))...))))))))” yielded a Tm of 49.1 °C. With “CGACGTGCTCTATGTGCTG+CAGCACATGTAGCACGTCG (((((((((..((((((((+))))))))..)))))))))” the Tm was 52.3 °C. “CGACGTGCATAATGTGCTG+CAGCACATTCGGCACGTCG ((((((((..(((((((((+)))))))))..))))))))” showed a Tm of 51.8 °C. “CGACGTGCTTAATGTGCTG+CAGCACATCCTGCACGTCG ((((((((...((((((((+))))))))...))))))))” gave a Tm of 48.4 °C. “CGACGTGCTATATGTGCTG+CAGCACATGATGCACGTCG ((((((((...((((((((+))))))))...))))))))” showed a Tm of 51.9 °C. “CGACGTGCAGTATGTGCTG+CAGCACATACTGCACGTCG (((((((((((((((((((+)))))))))))))))))))” showed a Tm of 62.7 °C.
